Reference: patent US20220185896A1 (NEW YORK UNIVERSITY, published 2022)

Assays:
[1] = target: T1, human galectin-9 CRD2 domain (human, UniProt O00182 227-355, limits assumed); assay: bead based binding
T1 construct: domain: CRD2; also called CRD2 domain of galectin-9

[2] = target: T2, mouse galectin-9 CRD2 domain (mouse, UniProt O08573 225-353, limits assumed); assay: bead based binding
T2 construct: domain: CRD2; also called mouse CRD2 domain

[3] = target: T3, rat galectin-9 CRD2 domain (rat, UniProt P97840 226-354, limits assumed); assay: bead based binding
T3 construct: domain: CRD2; also called rat CRD2 domain
T3 sequence (P97840 226-354 limits assumed): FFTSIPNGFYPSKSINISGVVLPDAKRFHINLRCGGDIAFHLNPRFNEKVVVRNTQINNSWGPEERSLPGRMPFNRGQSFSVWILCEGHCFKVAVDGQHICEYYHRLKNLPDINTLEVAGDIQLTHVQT

[4] = target: T4, cynomolgus galectin-9 CRD2 domain (cynomolgus monkey, UniProt A0A7N9IHL9 227-355); assay: bead based binding
T4 construct: domain: CRD2; also called cynomolgus CRD2 domain; CRD2 domain of cynomolgus monkey galectin-9

[5] = target: T2, mouse galectin-9 CRD2 domain; assay: SPR, One Step method on a Pioneer SPR
[6] = target: T1, human galectin-9 CRD2 domain; assay: ELISA, antibody titrated over immobilized Galectin-9 CRD2
[7] = target: T5, human galectin-9 CRD1 domain (human, UniProt O00182 15-148, limits assumed); assay: bead based binding to human galectin-9 CRD1 and CRD2 domains
T5 construct: domain: CRD1; also called CRD1 domain of galectin-9 protein
T5 sequence (O00182 15-148 limits assumed): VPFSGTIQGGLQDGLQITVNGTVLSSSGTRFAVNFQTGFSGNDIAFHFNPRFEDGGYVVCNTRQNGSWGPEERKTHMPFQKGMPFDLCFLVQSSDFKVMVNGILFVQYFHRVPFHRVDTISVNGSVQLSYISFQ

[8] = target: T6, human galectin-9 on the cell surface (CRL-2134 cell line; patient tumor-derived cells) (human, UniProt O00182 1-355); assay: cell based saturation curve, surface staining of CRL-2134 cells (fraction of positive cells)
T6 construct: whole, on cells
T6 sequence (O00182 whole entry): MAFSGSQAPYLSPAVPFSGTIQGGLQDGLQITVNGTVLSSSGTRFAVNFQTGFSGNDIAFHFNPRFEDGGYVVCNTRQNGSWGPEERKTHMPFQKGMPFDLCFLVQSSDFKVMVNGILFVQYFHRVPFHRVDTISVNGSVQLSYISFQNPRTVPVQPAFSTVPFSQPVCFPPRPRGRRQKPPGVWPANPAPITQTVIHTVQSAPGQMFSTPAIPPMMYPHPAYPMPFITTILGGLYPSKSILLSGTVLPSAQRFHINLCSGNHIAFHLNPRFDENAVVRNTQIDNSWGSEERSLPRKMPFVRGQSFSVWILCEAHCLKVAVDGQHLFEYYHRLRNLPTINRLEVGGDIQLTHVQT

T1 sequence (O00182 227-355 limits assumed): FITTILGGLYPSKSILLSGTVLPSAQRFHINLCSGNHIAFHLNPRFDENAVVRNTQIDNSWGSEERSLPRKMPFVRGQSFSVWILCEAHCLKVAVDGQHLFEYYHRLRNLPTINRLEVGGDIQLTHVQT
T2 sequence (O08573 225-353 limits assumed): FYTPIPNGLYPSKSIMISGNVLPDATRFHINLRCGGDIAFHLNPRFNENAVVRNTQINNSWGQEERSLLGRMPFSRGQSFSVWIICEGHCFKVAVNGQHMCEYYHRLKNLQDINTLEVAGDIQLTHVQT

Binder | Kd [1] [pM] | Kd [2] [pM] | Kd [3] [pM] | Kd [4] [pM] | Kd [5] [pM] | Kd [6] [pM] | binding result [7] | Kd [8] [pM]
G9.2-17 mIgG1 (mouse IgG1 version of G9.2-17) (antibody, V domains shown, Mouse IgG1 backbone; also called mIgG1 G9.2-17; G9.2-17 IgG1 mouse mAb) VH: EVQLVESGGGLVQPGGSLRLSCAASGFTVSSSSIHWVRQAPGKGLEWVAYISSSSGYTYYADSVKGRFTISADTSKNTAYLQMNSLRAEDTAVYYCARYWSYPSWWPYRGMDYWGQGTLVTVSS VL: DIQMTQSPSSLSASVGDRVTITCRASQSVSSAVAWYQQKPGKAPKLLIYSASSLYSGVPSRFSGSRSGTDFTLTISSLQPEDFATYYCQQSSTDPITFGQGTKVEIKR | 180 | 300 | 350 | 300 | 3050 | 450 | no binding | 2900
anti-Galectin-9 antibody G9.2-17 (IgG4) (antibody, V domains shown, also called G9.2-17 (Ig4); G9.2-17 hIgG4 Fab Arm Exchange mut) VH: EVQLVESGGGLVQPGGSLRLSCAASGFTVSSSSIHWVRQAPGKGLEWVAYISSSSGYTYYADSVKGRFTISADTSKNTAYLQMNSLRAEDTAVYYCARYWSYPSWWPYRGMDYWGQGTLVTVSS VL: DIQMTQSPSSLSASVGDRVTITCRASQSVSSAVAWYQQKPGKAPKLLIYSASSLYSGVPSRFSGSRSGTDFTLTISSLQPEDFATYYCQQSSTDPITFGQGTKVEIKR | 150 | 300 | – | – | 1800 | 420 | no binding | 410
